Here are results for eight substances from article PMC5309799.

Test [1] has as its target Basigin ectodomain, AVEXIS bait or prey and biotinylated SPR ligand (human) (UniProt P35613). Put plainly: SPR. On the technique in general: SPR reads the build-up and loss of mass on a sensor chip optically.
The target of test [2] is P113 entire ectodomain, AVEXIS bait and prey forms (P. falciparum (3D7 strain)). Put plainly: SPR.
Test [3] deals with P113 Y1-K197, biotinylated SPR ligand (P. falciparum (3D7 strain)). Put plainly: SPR.
The target in test [4] is P113 Y1-N653, biotinylated SPR ligand (P. falciparum (3D7 strain)). Put plainly: SPR.
The target in test [5] is P113 entire ectodomain, AVEXIS bait or prey and biotinylated SPR ligand (P. falciparum (3D7 strain)). Put plainly: SPR.
The target in test [6] is RH5Nt (F1-K116), biotinylated SPR ligand (P. falciparum (3D7 strain)). Put plainly: SPR.
Test [7] addresses Synthetic RH5Nt peptide (F1-K116 with an additional C-terminal cysteine) (P. falciparum). Put plainly: SPR.
In the next test the target is Basigin (Homo sapiens) (UniProt P35613). The conditions noted are these: cited from earlier work.
Test [8] addresses purified P113 entire ectodomain (P113 EE) (P. falciparum (3D7 strain)). Put plainly: native gel or EMSA; fractions of the gel filtration peak resolved by native PAGE (Bis-Tris, 150 V) against denaturing SDS-PAGE. A general note: In EMSA bound probe runs differently from free probe, usually more slowly.

Turning to “RH5Ct (major processed form of RH5), purified monomeric SPR analyte (domain or fragment)”, in test [1], the Kd (as a rule, the constant that tells how readily two partners part at equilibrium) worked out at 900 nM; the koff (usually a measure of how fast the partners let go of each other) is 0.293 s⁻¹; the kon (usually the second-order rate constant of association) came out at 342000 M⁻¹ s⁻¹.

On to “purified monomeric full-length RH5 (RH5FL) (from UniProt Q8IFM5 25-526) (natural protein)”, for which, in test [2], the Kd amounted to 300 nM.

Consider “RH5FL, purified monomeric SPR analyte (from UniProt Q8IFM5 25-526) (natural protein)”, for which the Kd in [3] was 1100 nM; in test [1] it was 1300 nM; in test [4], 500 nM.

In test [5], “RH5Nt (N-terminal region of RH5, F1-K116), purified monomeric SPR analyte (domain or fragment)” had a Kd of 2700 nM, a koff of 0.793 s⁻¹ and a kon of 300000 M⁻¹ s⁻¹.

In [2], “purified monomeric RH5Nt (F1-K116) (domain or fragment)” registered a Kd of 3000 nM.

In test [6], “P113 Y1-N653, purified SPR analyte (domain or fragment)” registered a Kd of 5000 nM, a koff of 1.54 s⁻¹ and a kon of 304000 M⁻¹ s⁻¹. Also, in test [7], the Kd worked out at 5700 nM, the koff was found to be 1.24 s⁻¹ and the kon came out at 216000 M⁻¹ s⁻¹.

For the substance RH5 (from UniProt Q8IFM5), the Kd in the test with Basigin (Homo sapiens) was 1000 nM.

On to “purified P113 entire ectodomain (P113 EE) (natural protein)”, for which the stoichiometry N – broadly, a count of units in the complex or per binding partner – in [8] is 4.
